Results as given in US20180346600.
Substitutions are numbered along the chain they refer to. Numbers in names are those of the source.

Columns and labels:
Assay in all cases: HEK293-F co-expression, Protein A purification, non-reducing SDS-PAGE densitometry
[1] = target: FcCH3B, A205 (E357N/K370R)
[2] = target: FcCH3B, A210 (E357N/K370H)
[3] = target: T1, FcCH3B, B215 (D399W/K392G/K409M)
T1 chain: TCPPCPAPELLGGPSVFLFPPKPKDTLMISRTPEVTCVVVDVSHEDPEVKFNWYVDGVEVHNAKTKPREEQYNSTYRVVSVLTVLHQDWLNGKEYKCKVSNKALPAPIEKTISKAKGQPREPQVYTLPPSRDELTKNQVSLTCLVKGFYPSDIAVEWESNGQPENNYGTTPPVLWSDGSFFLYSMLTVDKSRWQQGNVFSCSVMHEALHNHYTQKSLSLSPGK

FcCH3B, A241 (E357N) = target: FcCH3B, A241 (E357N)
FcCH3B, A216 (E357N) = target: FcCH3B, A216 (E357N)
[4] = target: T2, FcCH3B, B240 (D399G/K392G/K409M)
T2 chain: T1 chain with W175G

B1: scFv-FcCH3A, A205 (E357D/S364W/K370E) (protein)
chain: T1 chain with E133D, S140W, K146E, G168K, W175D, M185K
Question: How did the (scFv-Fc)(Fc) (heterodimer)(%) [1] turn out when B1 was run?
Answer: Its (scFv-Fc)(Fc) (heterodimer)(%) is 88.8%.

B2: scFv-FcCH3A, A210 (E357A/S364Y/K370E) (protein)
chain: T1 chain with E133A, S140Y, K146E, G168K, W175D, M185K
Question: B2 was tested. Which (scFv-Fc)(Fc) (heterodimer)(%) [2] did it give?
Answer: Its (scFv-Fc)(Fc) (heterodimer)(%) is 80.8%.

B3: scFv-FcCH3A, B215 (K392R/K409R/D399L) (protein)
chain: T1 chain with G168R, W175L, M185R
Question: With B3 as the protein, how does the (scFv-Fc)(Fc) (heterodimer)(%) [3] read?
Answer: The (scFv-Fc)(Fc) (heterodimer)(%) was 78.1%.

B4: scFv-FcCH3A, A241 (E357N/S364W/K370E) (protein)
chain: T1 chain with E133N, S140W, K146E, G168K, W175D, M185K
Question: With B4 as the protein, how does the (scFv-Fc)(Fc) (heterodimer)(%) (FcCH3B, A241 (E357N)) read?
Answer: Its (scFv-Fc)(Fc) (heterodimer)(%) is 81%.

B5: scFv-FcCH3A, A216 (E357G/S364W/K370E) (protein)
chain: T1 chain with E133G, S140W, K146E, G168K, W175D, M185K
Question: For B5, which (scFv-Fc)(Fc) (heterodimer)(%) (FcCH3B, A216 (E357N)) is on record?
Answer: Its (scFv-Fc)(Fc) (heterodimer)(%) is 80.3%.

B6: scFv-FcCH3A, B240 (K392S/K409R/D399L) (protein)
chain: T1 chain with G168S, W175L, M185R
Question: B6 was tested. Which (scFv-Fc)(Fc) (heterodimer)(%) [4] did it give?
Answer: The (scFv-Fc)(Fc) (heterodimer)(%) was 83.3%.
